According to article PMC3483176, “Structural Insight into the Clostridium difficile Ethanolamine Utilisation Microcompartment” (PLoS ONE, 2012):

B1: CD1908, C-terminal His6 tagged (CD1908-His) (natural protein, Clostridium difficile 630, UniProt Q187M0 1-116, looked up)
chain: MTEESKQRVIQEYVPGKQVTLAHIIANPNEDIYKKLGLVLDKKDAIGILTITPSEASIIAADVATKASNVSLGFIDRFSGSVVISGDVSSVESALNDVLEVLGNMLNFSSTKITRT
notes: CD1908, EutS homologue, BMC shell protein of the eut operon of Clostridium difficile 630; full length open reading frame amplified from genomic DNA (genome positions 2209853-2210203); Cloned between NcoI and XhoI of pET28b; also called EutS; C. difficile EutS homologue; source: E. coli B834 (DE3), purified (HisTrap, Superdex S200 size exclusion); not shown: His6, C-terminal, kept
B2: CD1918, C-terminal His6 tagged (CD1918-His) (natural protein)
chain: MASANALGMIETKGLVGAIEAADAMVKAANVQLVGKEQVGGGLVTVMVRGDVGAVKAATDAGAAAAERVGELISVHVIPRPHFEVDAILPKVSAE
notes: CD1918, EutM homologue, BMC shell protein of the eut operon of Clostridium difficile 630; full length open reading frame amplified from genomic DNA (genome positions 2219567-2219854); Cloned between NcoI and XhoI of pET28b; the XhoI site probably adds Leu-Glu before the His6 tag (surmised); also called EutM; C. difficile EutM homologue; source: E. coli B834 (DE3), purified (HisTrap, Superdex S200 …)

Experiments:
[1] = molecular target: the molecule itself; assay: crystal structure; CD1908-His at 10 mg/ml in Milli-Q H2O, sitting drop, 24% (w/v) PEG 1500, 20% (v/v) glycerol; space group H 3; two molecules in the asymmetric unit, hexamer by the crystallographic 3-fold axis; oligomerisation states calculated with PISA
[2] = molecular target: the molecule itself; assay: crystal structure; CD1918-His at 10 mg/ml in Milli-Q H2O, sitting drop, 200 mM Li2SO4, 100 mM phosphate/citrate buffer pH 4.2, 20% (w/v) PEG 1000; space group I 1 2 1; three chains in the asymmetric unit, hexamer by a crystallographic 2-fold axis; oligomerisation states calculated with PISA

Row | Protein | stoichiometry N [1] | stoichiometry N [2]
1 | B1 | 6 | 
2 | B2 |  | 6
